In article PMC9123601 (Archives of biochemistry and biophysics, 2015):
Like-named read-outs stand apart in the source and are kept apart here.

Legend:
[1] = biological target: the molecule itself; assay: SEC
[2] = biological target: the molecule itself; assay: SEC; remark: listed apart in the source

B1: Human Prx2, native, reduced (thiol cysteines) (enzyme, UniProt P32119 1-198, looked up)
chain: MASGNARIGKPAPDFKATAVVDGAFKEVKLSDYKGKYVVLFFYPLDFTFVCPTEIIAFSNRAEDFRKLGCEVLGVSVDSQFTHLAWINTPRKEGGLGPLNIPLLADVTRRLSEDYGVLKTDEGIAYRGLFIIDGKGVLRQITVNDLPVGRSVDEALRLVQAFQYTDEHGEVCPAGWKPGSDTIKPNVDDSKEYFSKHN
modifications: cysteines reduced (thiol)
For B1, the “stoichiometry N” value [1] was 10.

B2: Human Prx2, overoxidized (enzyme, UniProt P32119 1-198, looked up)
chain: B1 chain
modifications: overoxidized (so in the source)
With B2 the “stoichiometry N” value [2] was 10.
